Measurements from patent US20250269026A1 (CHENGDU KELUN PRECISION BIOTECHNOLOGY, published 2025).

Target: biotin-labeled MSLN antigen (UniProt Q13421 296-580, limits assumed, biotin label (site not stated))
Test: flow cytometry; CAR-T cells labeled with biotin-labeled MSLN antigen, detected with fluorescent streptavidin
Excerpt: The nucleic acid sequence encoding the CAR was expressed under the drive of promoter, and the lentivirus-transfected T cells were labeled with biotin-labeled MSLN antigen, and then detected with fluorescently labeled streptavidin, and determined by flow cytometry, which reflected the expression level of the CAR on the surface of T cells. The CAR positive rate of the CAR-T cells obtained in Example 3 was detected by the above method, and the FACS detection results were shown in the following table.

Sequence of biotin-labeled MSLN antigen (Q13421 other isoform, or with tags, fused parts or gaps limits assumed): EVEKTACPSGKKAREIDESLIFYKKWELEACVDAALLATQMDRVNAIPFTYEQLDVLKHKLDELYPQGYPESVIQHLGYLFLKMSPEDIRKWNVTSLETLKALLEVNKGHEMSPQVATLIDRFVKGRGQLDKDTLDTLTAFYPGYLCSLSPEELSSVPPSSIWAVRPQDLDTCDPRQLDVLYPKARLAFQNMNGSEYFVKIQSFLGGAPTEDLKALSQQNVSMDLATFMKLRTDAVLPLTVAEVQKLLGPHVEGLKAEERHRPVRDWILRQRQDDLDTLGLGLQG

| Binder | CAR positive rate |
| --- | --- |
| G5-CAR (other, Chimeric antigen receptor on lentivirus-transduced human T cells; the signal peptide is left out here; also called G5 chimeric antigen receptor) QVQLVQSGGGLVQPGRSLRLSCAASGFTFDDYAMHWVRQAPGKGLEWVSGISWNSGSIGYADSVKGRFTISRDNAKNSLYLQMNSLRAEDTALYYCAKDMGSSGWSPVDYWGQGTLVTVSSASGGGGSGGRASGGGGSDIQVTQSPSSLSASVGDRVTITCRASQGINHYLAWYQQKPGKAPKLLIYGASTLQTGVSSRFSGSGSGTEFTLTISSLQPEDFATYYCQQLNGYPLGYTFGQGTKVEIKRTTTPAPRPPTPAPTIASQPLSLRPEACRPAAGGAVHTRGLDFACDIYIWAPLAGTCGVLLLSLVITLYCKRGRKKLLYIFKQPFMRPVQTTQEEDGCSCRFPEEEEGGCELRVKFSRSADAPAYKQGQNQLYNELNLGRREEYDVLDKRRGRDPEMGGKPRRKNPQEGLYNELQKDKMAEAYSEIGMKGERRRGKGHDGLYQGLSTATKDTYDALHMQALPPR | 50.5% |
| G16-CAR (other, Chimeric antigen receptor on lentivirus-transduced human T cells; the signal peptide is left out here; also called G16 chimeric antigen receptor) QVQLVQSGAEVTKPGASVKVSCRASGYPFSNFFMNWVRQAPGQGLEWMGIINPIGGSTTYAQKFQGRVTMTRDTSTDTVYMELSSLRSDDTAVYYCARSSSHLGAFDIWGQGTMVTVSSASGGGGSGGRASGGGGSDIQLTQSPSSVSASVGDRVTITCRASQSISTWVAWYQHKPGVAPKLLIYASPTLQSGVPSRFSGSGSGTDFTLTISSLQSEDFATYYCQQAHSFPITFGQGTRLEIKRTTTPAPRPPTPAPTIASQPLSLRPEACRPAAGGAVHTRGLDFACDIYIWAPLAGTCGVLLLSLVITLYCKRGRKKLLYIFKQPFMRPVQTTQEEDGCSCRFPEEEEGGCELRVKFSRSADAPAYKQGQNQLYNELNLGRREEYDVLDKRRGRDPEMGGKPRRKNPQEGLYNELQKDKMAEAYSEIGMKGERRRGKGHDGLYQGLSTATKDTYDALHMQALPPR | 41.5% |
